According to article PMC5052650, “Characterization of the DNA dependent activation of human ARTD2/PARP2”:

Assays:
ARTD2CAT = ARTD2CAT (Homo sapiens, UniProt Q9UGN5 235-583); experiment: EMSA; FP: 10 mM Hepes pH 8.0, 150 mM NaCl, 0.1 mM TCEP, 0.1 mM EDTA, 10% glycerol, 25 C, 5 nM DNA (250 nM for stoichiometry); EMSA: 50 mM Hepes, 300 mM NaCl, 0.1 mM EDTA, 10% glycerol, 0.1 mM TCEP, on ice, 1 uM DNA; SEC-SAXS: 20 mM Hepes pH 7.5, 300 mM NaCl, 5% glycerol; conditions: protein: recombinant; tags: His6 removed by TEV (SM left); hairpin, blunt
Sequence of ARTD2CAT (Q9UGN5 235-583): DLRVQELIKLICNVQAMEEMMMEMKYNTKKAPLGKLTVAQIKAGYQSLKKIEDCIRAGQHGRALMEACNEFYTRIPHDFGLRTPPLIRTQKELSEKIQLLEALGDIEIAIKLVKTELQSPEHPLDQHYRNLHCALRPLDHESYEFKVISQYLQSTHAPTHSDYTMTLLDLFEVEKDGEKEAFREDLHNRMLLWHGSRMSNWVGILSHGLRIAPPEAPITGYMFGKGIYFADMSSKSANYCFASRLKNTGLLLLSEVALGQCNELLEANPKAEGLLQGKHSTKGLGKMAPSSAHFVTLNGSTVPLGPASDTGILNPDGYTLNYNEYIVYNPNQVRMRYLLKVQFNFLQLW

ARTD2WGR+CAT = ARTD2WGR+CAT (Homo sapiens, UniProt Q9UGN5 71-583); experiment: as above; conditions: protein: recombinant; tags: His6-ZB removed by TEV (QS left); hairpin, blunt
Sequence of ARTD2WGR+CAT (Q9UGN5 71-583): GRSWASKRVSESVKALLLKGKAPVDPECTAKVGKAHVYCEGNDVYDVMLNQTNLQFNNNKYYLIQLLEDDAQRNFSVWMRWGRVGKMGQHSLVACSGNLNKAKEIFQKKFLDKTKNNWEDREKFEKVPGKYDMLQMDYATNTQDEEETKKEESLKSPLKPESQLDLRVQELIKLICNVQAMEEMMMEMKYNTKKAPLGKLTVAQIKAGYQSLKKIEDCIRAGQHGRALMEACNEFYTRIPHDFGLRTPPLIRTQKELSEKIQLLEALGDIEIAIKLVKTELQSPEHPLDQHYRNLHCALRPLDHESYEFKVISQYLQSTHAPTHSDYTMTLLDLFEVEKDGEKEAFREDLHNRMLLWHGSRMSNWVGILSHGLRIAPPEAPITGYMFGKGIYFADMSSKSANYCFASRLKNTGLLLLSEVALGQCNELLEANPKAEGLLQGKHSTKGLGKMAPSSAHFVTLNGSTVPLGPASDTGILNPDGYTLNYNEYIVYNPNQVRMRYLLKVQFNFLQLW

ARTD2FL [1] = target: T1, ARTD2FL (Homo sapiens, UniProt Q9UGN5 1-583); experiment: EMSA; no free DNA above 2:1; FP: 10 mM Hepes pH 8.0, 150 mM NaCl, 0.1 mM TCEP, 0.1 mM EDTA, 10% glycerol, 25 C, 5 nM DNA (250 nM for stoichiometry); EMSA: 50 mM Hepes, 300 mM NaCl, 0.1 mM EDTA, 10% glycerol, 0.1 mM TCEP, on ice, 1 uM DNA; SEC-SAXS: 20 mM Hepes pH 7.5, 300 mM NaCl, 5% glycerol; conditions: protein: recombinant; tags: His6-thioredoxin removed by TEV (QS left); hairpin, blunt
T1 sequence (Q9UGN5 whole entry): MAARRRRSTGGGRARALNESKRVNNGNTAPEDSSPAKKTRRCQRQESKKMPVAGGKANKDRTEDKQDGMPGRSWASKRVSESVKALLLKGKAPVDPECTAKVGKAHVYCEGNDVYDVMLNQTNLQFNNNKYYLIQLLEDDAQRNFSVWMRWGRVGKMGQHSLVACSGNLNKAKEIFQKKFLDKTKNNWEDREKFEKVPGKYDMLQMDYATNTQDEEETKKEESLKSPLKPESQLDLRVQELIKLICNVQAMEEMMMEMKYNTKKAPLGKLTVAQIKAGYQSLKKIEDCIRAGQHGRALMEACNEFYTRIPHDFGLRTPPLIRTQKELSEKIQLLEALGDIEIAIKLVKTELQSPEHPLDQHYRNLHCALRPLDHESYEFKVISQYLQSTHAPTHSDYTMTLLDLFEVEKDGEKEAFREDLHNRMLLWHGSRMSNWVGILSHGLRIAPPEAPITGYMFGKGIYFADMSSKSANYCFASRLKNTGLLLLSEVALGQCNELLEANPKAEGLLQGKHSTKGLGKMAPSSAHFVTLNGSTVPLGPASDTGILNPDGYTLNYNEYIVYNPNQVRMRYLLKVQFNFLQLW

ARTD2FL [2] = target: T1, ARTD2FL; experiment: fluorescence polarization; Kd range 10-63 nM over oligos; 1:1 to 4:1; FP: 10 mM Hepes pH 8.0, 150 mM NaCl, 0.1 mM TCEP, 0.1 mM EDTA, 10% glycerol, 25 C, 5 nM DNA (250 nM for stoichiometry); EMSA: 50 mM Hepes, 300 mM NaCl, 0.1 mM EDTA, 10% glycerol, 0.1 mM TCEP, on ice, 1 uM DNA; SEC-SAXS: 20 mM Hepes pH 7.5, 300 mM NaCl, 5% glycerol; conditions: protein: recombinant, tags: His6-thioredoxin removed by TEV (QS left), label: fluorescein
ARTD2FL [3] = target: T1, ARTD2FL; experiment: EMSA; some free DNA even at 4:1; FP: 10 mM Hepes pH 8.0, 150 mM NaCl, 0.1 mM TCEP, 0.1 mM EDTA, 10% glycerol, 25 C, 5 nM DNA (250 nM for stoichiometry); EMSA: 50 mM Hepes, 300 mM NaCl, 0.1 mM EDTA, 10% glycerol, 0.1 mM TCEP, on ice, 1 uM DNA; SEC-SAXS: 20 mM Hepes pH 7.5, 300 mM NaCl, 5% glycerol; conditions: protein: recombinant; tags: His6-thioredoxin removed by TEV (QS left); nicked dumbbell, two hairpins, 1 strand
ARTD2FL [4] = target: T1, ARTD2FL; experiment: fluorescence polarization; Kd range 10-63 nM over oligos; binds as monomer (1:1); FP: 10 mM Hepes pH 8.0, 150 mM NaCl, 0.1 mM TCEP, 0.1 mM EDTA, 10% glycerol, 25 C, 5 nM DNA (250 nM for stoichiometry); EMSA: 50 mM Hepes, 300 mM NaCl, 0.1 mM EDTA, 10% glycerol, 0.1 mM TCEP, on ice, 1 uM DNA; SEC-SAXS: 20 mM Hepes pH 7.5, 300 mM NaCl, 5% glycerol; conditions: protein: recombinant; tags: His6-thioredoxin removed by TEV (QS left); label: fluorescein; hairpin, blunt
ARTD2FL [5] = target: T1, ARTD2FL; experiment: EMSA; no free DNA only after 4:1; FP: 10 mM Hepes pH 8.0, 150 mM NaCl, 0.1 mM TCEP, 0.1 mM EDTA, 10% glycerol, 25 C, 5 nM DNA (250 nM for stoichiometry); EMSA: 50 mM Hepes, 300 mM NaCl, 0.1 mM EDTA, 10% glycerol, 0.1 mM TCEP, on ice, 1 uM DNA; SEC-SAXS: 20 mM Hepes pH 7.5, 300 mM NaCl, 5% glycerol; conditions: protein: recombinant; tags: His6-thioredoxin removed by TEV (QS left); blunt, palindromic, 2 copies
ARTD2FL [6] = target: T1, ARTD2FL; experiment: fluorescence polarization; affinity similar to oligo 40; FP: 10 mM Hepes pH 8.0, 150 mM NaCl, 0.1 mM TCEP, 0.1 mM EDTA, 10% glycerol, 25 C, 5 nM DNA (250 nM for stoichiometry); EMSA: 50 mM Hepes, 300 mM NaCl, 0.1 mM EDTA, 10% glycerol, 0.1 mM TCEP, on ice, 1 uM DNA; SEC-SAXS: 20 mM Hepes pH 7.5, 300 mM NaCl, 5% glycerol; conditions: protein: recombinant; tags: His6-thioredoxin removed by TEV (QS left); label: fluorescein
ARTD2FL [7] = target: T1, ARTD2FL; experiment: EMSA; FP: 10 mM Hepes pH 8.0, 150 mM NaCl, 0.1 mM TCEP, 0.1 mM EDTA, 10% glycerol, 25 C, 5 nM DNA (250 nM for stoichiometry); EMSA: 50 mM Hepes, 300 mM NaCl, 0.1 mM EDTA, 10% glycerol, 0.1 mM TCEP, on ice, 1 uM DNA; SEC-SAXS: 20 mM Hepes pH 7.5, 300 mM NaCl, 5% glycerol; conditions: protein: recombinant; tags: His6-thioredoxin removed by TEV (QS left)
ARTD2FL [8] = target: T1, ARTD2FL; experiment: fluorescence polarization; affinity similar to oligo 39; FP: 10 mM Hepes pH 8.0, 150 mM NaCl, 0.1 mM TCEP, 0.1 mM EDTA, 10% glycerol, 25 C, 5 nM DNA (250 nM for stoichiometry); EMSA: 50 mM Hepes, 300 mM NaCl, 0.1 mM EDTA, 10% glycerol, 0.1 mM TCEP, on ice, 1 uM DNA; SEC-SAXS: 20 mM Hepes pH 7.5, 300 mM NaCl, 5% glycerol; conditions: protein: recombinant; tags: His6-thioredoxin removed by TEV (QS left); label: fluorescein

GGAAGTTCTTTTGAACTTCC (structured_DNA, 5'-phosphate) [oligonucleotide 6]
binding result (ARTD2CAT): no binding
binding result (ARTD2WGR+CAT): binds
binding result (ARTD2FL [1]): binds

B1: oligonucleotide 38 (labelled 18) (dsDNA)
DNA 1: GCCTTAGCGCGTATACGCGCTAAGGC
DNA 2: GCCTTAGCGCGTATACGCGCTAAGGC
modifications: 5'-phosphate
binding result (ARTD2FL [2]; blunt, palindromic, 2 copies): binds

GGAAGTTCTTTTGAACTTCCTCGAAGCTTTTGCTTCGA (structured_DNA, 5'-phosphate) [oligonucleotide 2]
binding result (ARTD2FL [3]): binds

GGAAGTTCTTTTGAACTTCCTCGAAGCTTTTGCTTCGA (structured_DNA, 5'-phosphate) [oligonucleotide 41 (labelled 2)]
binding result (ARTD2FL [2]; nicked dumbbell, two hairpins, 1 strand): binds

GGAAGTTCTTTTGAACTTCC (structured_DNA, 5'-phosphate) [oligonucleotide 42 (labelled 6)]
binding result (ARTD2FL [4]): binds

B2: oligonucleotide 18 (dsDNA)
DNA 1: GCCTTAGCGCGTATACGCGCTAAGGC
DNA 2: GCCTTAGCGCGTATACGCGCTAAGGC
modifications: 5'-phosphate
binding result (ARTD2FL [5]): binds

B3: oligonucleotide 39 (labelled 19) (dsDNA)
DNA 1: CCAGGACCAGGGCGCAGATCACCTTGTTCTCCA
DNA 2: TGGAGAACAAGGTGATCTGCGCCCTGGTCCTGG
binding result (ARTD2FL [6]): binds

B4: oligonucleotide 20 (dsDNA)
DNA 1: CCAGGACCAGGGCGCAGATCACCTTGTTCTCCA
DNA 2: TGGAGAACAAGGTGATCTGCGCCCTGGTCCTGG
modifications: 5'-phosphate
binding result (ARTD2FL [7]): binds

B5: oligonucleotide 40 (labelled 20) (dsDNA)
DNA 1: CCAGGACCAGGGCGCAGATCACCTTGTTCTCCA
DNA 2: TGGAGAACAAGGTGATCTGCGCCCTGGTCCTGG
modifications: 5'-phosphate
binding result (ARTD2FL [8]): binds
